Experimental data published in article PMC4252038, “H2O2 Inhibits ABA-Signaling Protein Phosphatase HAB1” (PLoS ONE, 2014).

Target: the molecule itself
Experiment: SEC; size exclusion chromatography of His6-MBP-HAB1(171–511 aa) treated with 0.3 mM H2O2 for 30 min at 30°C; monomer to disulfide-linked dimer

B1: His6-MBP-HAB1(171–511 aa) wild type (domain or fragment, Arabidopsis thaliana, UniProt Q9CAJ0 171-511, looked up)
chain: NSNHLVKGRSVYELDCIPLWGTVSIQGNRSEMEDAFAVSPHFLKLPIKMLMGDHEGMSPSLTHLTGHFFGVYDGHGGHKVADYCRDRLHFALAEEIERIKDELCKRNTGEGRQVQWDKVFTSCFLTVDGEIEGKIGRAVVGSSDKVLEAVASETVGSTAVVALVCSSHIVVSNCGDSRAVLFRGKEAMPLSVDHKPDREDEYARIENAGGKVIQWQGARVFGVLAMSRSIGDRYLKPYVIPEPEVTFMPRSREDECLILASDGLWDVMNNQEVCEIARRRILMWHKKNGAPPLAERGKGIDPACQAAADYLSMLALQKGSKDNISIIVIDLKAQRKFKTRT
notes: HAB1 protein phosphatase 2C, Arabidopsis thaliana, phosphatase domain, residues 171-511; In some assays the protein was treated with 0.3 mM or 1 mM H2O2 (30 min, 30°C) beforehand; the treatment is told by the assay; After 0.3 mM H2O2 it is a mixture of monomers and disulfide-linked dimers (C186, C274), after 1 mM higher oligomers; also called HAB1 phosphatase domain; wild type HAB1; source: E. …
- stoichiometry N: 2
